{"source": "patent US20200325475", "about": "“DNA APTAMER […] BINDING TO CFP10, AND USE […]” (MD APTUS INC., published 2020)", "binders": {"B1": {"name": "CG6 (ssDNA)", "DNA": "CACCTAATACGACTCACTATAGCGGATCCGACCTAGGTTCAGAAGGCTTTCTATTTTCCCGGTGCCTCGCACTGGCTCGAACAAGCTTGC"}}, "key": {"[1]": {"molecular_target": "CFP10 (culture filtrate protein 10 kDa) (Mycobacterium tuberculosis H37Rv, UniProt P9WNK5 P9WNK5:1-100)", "sequence (P9WNK5 whole entry, one chain of several)": "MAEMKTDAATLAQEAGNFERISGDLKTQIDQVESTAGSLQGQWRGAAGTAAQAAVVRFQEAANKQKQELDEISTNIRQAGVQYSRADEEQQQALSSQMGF", "test": "Cy3-aptamer binding to CFP10 on magnetic beads, fluorescence; 20 mM Tris, 50 mM NaCl, 5 mM KCl, 5 mM MgCl2, pH 8.0", "conditions": "tags: His6 tag, expressed from pET32a in E. coli BL21(DE3); label: Cy3 (fluorescence Kd assay)", "description": "400 pmole of CFP10 was mixed with 10 μL of magnetic beads, and then incubated in 100 μL of a binding buffer (20 mM Tris, 50 mM NaCl, 5 mM KCl, 5 mM MgCl₂, pH 8.0) for 1 hour. To separate unbound CFP10, washing was performed twice with a binding buffer. Subsequently, the resulting mixture was incubated together with various concentrations of a Cy3-labeled aptamer, and an unbound aptamer was removed by washing. The amount of Cy3-labeled ssDNA aptamer bound to the magnetic beads with CFP10 immobilized thereon was measured by fluorescence measurement (1420 Victor Multilabel counter, PerkinElmer, USA) by separating only Cy3-labeled ssDNA bound to CFP10. As a result, as shown in FIG. 3 and Table 2 below, the Kd value of the DNA aptamer having a CG6 base sequence was measured."}, "ESAT6": {"molecular_target": "ESAT6 (UniProt P9WNK7 P9WNK7:1-95)", "sequence (P9WNK7 whole entry, one chain of several)": "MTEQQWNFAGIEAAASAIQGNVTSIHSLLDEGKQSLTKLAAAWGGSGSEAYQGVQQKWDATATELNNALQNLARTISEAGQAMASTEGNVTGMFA", "test": "impedance biosensor, 10 pM protein in PBS", "excerpt": "At this time, each protein was mixed at a concentration of 10 pM with PBS and used for detection."}}, "data": [{"binder": "B1", "values": [{"measurement": "Kd", "setting": "[1]", "result": 92.8, "unit": "nM"}, {"measurement": "binding result", "setting": "ESAT6", "result": "no binding"}]}]}
